# Results reported in paper PMC7144518, “Tumor-derived soluble CD155 inhibits DNAM-1–mediated antitumor activity of natural killer cells” (The Journal of Experimental Medicine, 2020).
# T1: extracellular portion of human CD155 tagged with His protein at the C terminus (human, UniProt P15151 21-343)
# T1 chain: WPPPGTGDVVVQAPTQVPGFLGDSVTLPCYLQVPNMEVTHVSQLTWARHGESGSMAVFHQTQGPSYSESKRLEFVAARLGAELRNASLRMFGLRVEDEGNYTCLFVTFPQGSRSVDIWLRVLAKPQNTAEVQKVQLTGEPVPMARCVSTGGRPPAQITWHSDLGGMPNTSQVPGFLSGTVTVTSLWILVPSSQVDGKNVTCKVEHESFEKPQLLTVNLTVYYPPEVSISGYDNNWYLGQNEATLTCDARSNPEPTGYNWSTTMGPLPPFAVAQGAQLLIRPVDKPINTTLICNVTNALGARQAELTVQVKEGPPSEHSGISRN
# T2: extracellular portion of human CD155 tagged with His protein at the C terminus (human, UniProt P15151 21-343)
# T2 construct: human CD155 (poliovirus receptor, nectin-like protein-5), extracellular portion; R&D Systems"); also called sCD155-His; human His-tagged sCD155; source: bought: R&D Systems; not shown: His, C-terminal, kept
# T2 sequence (looked up): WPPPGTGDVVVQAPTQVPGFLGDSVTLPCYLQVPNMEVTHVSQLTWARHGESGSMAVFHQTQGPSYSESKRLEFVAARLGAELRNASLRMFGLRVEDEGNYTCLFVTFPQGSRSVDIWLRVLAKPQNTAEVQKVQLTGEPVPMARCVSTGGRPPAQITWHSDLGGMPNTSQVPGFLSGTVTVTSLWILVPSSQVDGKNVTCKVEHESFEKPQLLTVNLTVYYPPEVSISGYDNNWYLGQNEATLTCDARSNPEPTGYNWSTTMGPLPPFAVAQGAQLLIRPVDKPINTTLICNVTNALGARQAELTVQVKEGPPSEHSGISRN
# T3: extracellular portion of mouse CD155 tagged with His protein at the C terminus (mouse)
# T3 chain: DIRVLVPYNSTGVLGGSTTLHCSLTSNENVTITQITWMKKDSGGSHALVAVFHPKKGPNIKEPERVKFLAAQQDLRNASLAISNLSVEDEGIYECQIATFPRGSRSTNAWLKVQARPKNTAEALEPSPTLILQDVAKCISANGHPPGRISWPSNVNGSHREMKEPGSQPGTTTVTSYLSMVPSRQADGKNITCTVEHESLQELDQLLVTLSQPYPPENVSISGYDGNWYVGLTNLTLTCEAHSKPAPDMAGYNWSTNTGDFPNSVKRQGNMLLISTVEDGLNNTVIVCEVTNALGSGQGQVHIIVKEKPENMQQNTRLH
# B1: human TIGIT Fc fusion protein (Fc fusion, UniProt Q495A1 22-141, looked up)
# chain: MMTGTIETTGNISAEKGGSIILQCHLSSTTAQVTQVNWEQQDQLLAICNADLGWHISPSFKDRVAPGPGLGLTLQSLTVNDTGEYFCIYHTYPDGTYTGRIFLEVLESSVAEHGARFQIP
# notes: human TIGIT, extracellular portion; source: bought: R&D Systems
# B2: mouse DNAM-1 Fc fusion protein (Fc fusion)
# chain: EETLWDTTVRLSETMTLECVYPLTHNLTQVEWTKNTGTKTVSIAVYNPNHNMHIESNYLHRVHFLNSTVGFRNMSLSFYNASEADIGIYSCLFHAFPNGPWEKKIKVVWSDSFEIAAPSDSYLSAEPGQDVTLTCQLPRTWPVQQVIWEKVQPHQVDILASCNLSQETRYTSKYLRQTRSNCSQGSMKSILIIPNAMAADSGLYRCRSEAITGKNKSFVIRLIITDGGTNKHFILP
# B3: mouse TIGIT Fc fusion protein (Fc fusion)
# chain: TIDTKRNISAEEGGSVILQCHFSSDTAEVTQVDWKQQDQLLAIYSVDLGWHVASVFSDRVVPGPSLGLTFQSLTMNDTGEYFCTYHTYPGGIYKGRIFLKVQESSDDRNGLAQFQTAPLG
# B4: mouse CD96 Fc fusion protein (Fc fusion)
# chain: VWEELFNVGDDVYALPGSDINLTCQTKEKNFLVQMQWSKVTDKNDMIALYHPQYGLYCGQEHACESQVAATETEKGVTNWTLYLRNISSALGGKYECIFTLYPEGIKTTVYNLIVEPYTQDEHNYTIEIETNRTLEIPCFQNTSSEIPPRFTFSWLVEKDGVEEVLFTHHHHVNNSTSFKGRIRLGGDYRLHLSPVQIQDDGRTFSCHLTVNPLKAWKMSTTVKVFAKPEILMTVENSTMDVLGERVFTCLLKNVFPKANITWFIDGRFLQGNEEGIYITNEEKNCSSGFWELKSVLTRMHSGPSQSNNMTAWCMALSPGPRNKMWNTSSQPITVSFDSVIAPTKHLPTVTGSTLGTQPFSDAGVSPTGYLATPSVTIVDENGLTPDATPQTSNSSMTTKDGNYLEASSGTDAKNSSRAAASSKSGSWPFPFTSPPEWHSLPGTSTGPQEPDSPVSWIPSEVHTSAPLDASLAPHDTIISTTTEFPNVLTTANGTTKIDHGPITSIIVNQPSDGM
# B5: human DNAM-1 Fc fusion protein (Fc fusion, UniProt Q15762 19-254, looked up)
# chain: EEVLWHTSVPFAENMSLECVYPSMGILTQVEWFKIGTQQDSIAIFSPTHGMVIRKPYAERVYFLNSTMASNNMTLFFRNASEDDVGYYSCSLYTYPQGTWQKVIQVVQSDSFEAAVPSNSHIVSEPGKNVTLTCQPQMTWPVQAVRWEKIQPRQIDLLTYCNLVHGRNFTSKFPRQIVSNCSHGRWSVIVIPDVTVSDSGLYRCYLQASAGENETFVMRLTVAEGKTDNQYTLFVA
# notes: human DNAM-1 (DNAX accessory molecule 1, CD226), extracellular portion; source: bought: R&D Systems
# Assays:
# [1] = target: T1, extracellular portion of human CD155 …; experiment: BLI
# [2] = target: T2, extracellular portion of human CD155 …; experiment: BLI; His-tagged recombinant CD155 (20 µg/ml) loaded on a Ni-NTA biosensor; Fc fusion proteins as analytes at three concentrations; kinetics buffer; association 120 s, dissociation 120 s; global mode of BLItz; conditions: both partners purified
# [3] = target: T3, extracellular portion of mouse CD155 …; experiment: BLI
Binder,Kd [1],binding result [2],Kd [3]
B1,15.2 nM,binds,
B2,,,8.83 nM
B3,,,22.4 nM
B4,,,29.7 nM
B5,3.56 nM,binds,
